B1: Gamma-crystallin C, residues 4 to 79; numbered along this chain, P07315 (parent)
chain: ITFYEDRAFQGRSYETTTDCPNLQPYFSRCNSIRVESGCWMLYERPNYQGQQYLLRRGEYPDYQQWMGLSDSIRSC

± gives the uncertainty stated by the source.

The variants in this data set derive from B1. In words: abundance fitness (aPCA) (normalised: wild type 0, dead -1); higher = more abundant; growth selection in yeast, the domain comes from the species named. Conditions: Homo sapiens.
As for ITFYEDRASQGRSYETTTDCPNLQPYFSRCNSIRVESGCWMLYERPNYQGQQYLLRRGEYPDYQQWMGLSDSIRSC [F9S], the abundance fitness is -0.617 ± 0.18.

On to ITFYEDRAVQGRSYETTTDCPNLQPYFSRCNSIRVESGCWMLYERPNYQGQQYLLRRGEYPDYQQWMGLSDSIRSC [F9V], for which the abundance fitness is -0.628 ± 0.24.

ITFYEDRAMQGRSYETTTDCPNLQPYFSRCNSIRVESGCWMLYERPNYQGQQYLLRRGEYPDYQQWMGLSDSIRSC [F9M]: the abundance fitness is -0.095 ± 0.19.

ITFYEDRAEQGRSYETTTDCPNLQPYFSRCNSIRVESGCWMLYERPNYQGQQYLLRRGEYPDYQQWMGLSDSIRSC [F9E]: the abundance fitness was -0.367 ± 0.21.

In the case of ITFYEDRAWQGRSYETTTDCPNLQPYFSRCNSIRVESGCWMLYERPNYQGQQYLLRRGEYPDYQQWMGLSDSIRSC [F9W], the abundance fitness was -0.028 ± 0.067.

Regarding ITFYEDRALQGRSYETTTDCPNLQPYFSRCNSIRVESGCWMLYERPNYQGQQYLLRRGEYPDYQQWMGLSDSIRSC [F9L], the abundance fitness stood at 0.12 ± 0.16.

Take ITFYEDRATQGRSYETTTDCPNLQPYFSRCNSIRVESGCWMLYERPNYQGQQYLLRRGEYPDYQQWMGLSDSIRSC [F9T]: the abundance fitness was -0.56 ± 0.3.

On to ITFYEDRAQQGRSYETTTDCPNLQPYFSRCNSIRVESGCWMLYERPNYQGQQYLLRRGEYPDYQQWMGLSDSIRSC [F9Q], for which the abundance fitness was -0.207 ± 0.39.

As to ITFYEDRAFPGRSYETTTDCPNLQPYFSRCNSIRVESGCWMLYERPNYQGQQYLLRRGEYPDYQQWMGLSDSIRSC [Q10P], the abundance fitness was -1.2 ± 0.42.

As for ITFYEDRAFSGRSYETTTDCPNLQPYFSRCNSIRVESGCWMLYERPNYQGQQYLLRRGEYPDYQQWMGLSDSIRSC [Q10S], the abundance fitness was -0.066 ± 0.066.

Consider ITFYEDRAFTGRSYETTTDCPNLQPYFSRCNSIRVESGCWMLYERPNYQGQQYLLRRGEYPDYQQWMGLSDSIRSC [Q10T], for which the abundance fitness was 0.034 ± 0.15.

With ITFYEDRAFCGRSYETTTDCPNLQPYFSRCNSIRVESGCWMLYERPNYQGQQYLLRRGEYPDYQQWMGLSDSIRSC [Q10C], the abundance fitness was 0.053 ± 0.075.

For ITFYEDRAFKGRSYETTTDCPNLQPYFSRCNSIRVESGCWMLYERPNYQGQQYLLRRGEYPDYQQWMGLSDSIRSC [Q10K], the abundance fitness was determined as 0.158 ± 0.11.

Consider ITFYEDRAFHGRSYETTTDCPNLQPYFSRCNSIRVESGCWMLYERPNYQGQQYLLRRGEYPDYQQWMGLSDSIRSC [Q10H], for which the abundance fitness was 0.124 ± 0.24.

On to ITFYEDRAFNGRSYETTTDCPNLQPYFSRCNSIRVESGCWMLYERPNYQGQQYLLRRGEYPDYQQWMGLSDSIRSC [Q10N], for which the abundance fitness is -0.094 ± 0.13.

Turning to ITFYEDRAFGGRSYETTTDCPNLQPYFSRCNSIRVESGCWMLYERPNYQGQQYLLRRGEYPDYQQWMGLSDSIRSC [Q10G], the abundance fitness was -0.002 ± 0.038.

In the case of ITFYEDRAFFGRSYETTTDCPNLQPYFSRCNSIRVESGCWMLYERPNYQGQQYLLRRGEYPDYQQWMGLSDSIRSC [Q10F], the abundance fitness is -0.082 ± 0.14.

Turning to ITFYEDRAFVGRSYETTTDCPNLQPYFSRCNSIRVESGCWMLYERPNYQGQQYLLRRGEYPDYQQWMGLSDSIRSC [Q10V], the abundance fitness came out at 0.033 ± 0.073.

Turning to ITFYEDRAFMGRSYETTTDCPNLQPYFSRCNSIRVESGCWMLYERPNYQGQQYLLRRGEYPDYQQWMGLSDSIRSC [Q10M], the abundance fitness is -0.228 ± 0.11.

For the variant ITFYEDRAFAGRSYETTTDCPNLQPYFSRCNSIRVESGCWMLYERPNYQGQQYLLRRGEYPDYQQWMGLSDSIRSC [Q10A], the abundance fitness is 0.065 ± 0.076.

For the variant ITFYEDRAFLGRSYETTTDCPNLQPYFSRCNSIRVESGCWMLYERPNYQGQQYLLRRGEYPDYQQWMGLSDSIRSC [Q10L], the abundance fitness was -0.123 ± 0.067.

ITFYEDRAFRGRSYETTTDCPNLQPYFSRCNSIRVESGCWMLYERPNYQGQQYLLRRGEYPDYQQWMGLSDSIRSC [Q10R]: the abundance fitness is -0.082 ± 0.052.

As for ITFYENRAFQGRSYETTTDCPNLQPYFSRCNSIRVESGCWMLYERPNYQGQQYLLRRGEYPDYQQWMGLSDSIRSC [D6N], the abundance fitness was -0.035 ± 0.21.

For ITFYEHRAFQGRSYETTTDCPNLQPYFSRCNSIRVESGCWMLYERPNYQGQQYLLRRGEYPDYQQWMGLSDSIRSC [D6H], the abundance fitness worked out at 0.115 ± 0.23.

ITFYEQRAFQGRSYETTTDCPNLQPYFSRCNSIRVESGCWMLYERPNYQGQQYLLRRGEYPDYQQWMGLSDSIRSC [D6Q]: the abundance fitness is 0.086 ± 0.22.

As for ITFYEPRAFQGRSYETTTDCPNLQPYFSRCNSIRVESGCWMLYERPNYQGQQYLLRRGEYPDYQQWMGLSDSIRSC [D6P], the abundance fitness is -0.819 ± 0.45.

Turning to ITFYETRAFQGRSYETTTDCPNLQPYFSRCNSIRVESGCWMLYERPNYQGQQYLLRRGEYPDYQQWMGLSDSIRSC [D6T], the abundance fitness was 0.057 ± 0.13.

ITFYEGRAFQGRSYETTTDCPNLQPYFSRCNSIRVESGCWMLYERPNYQGQQYLLRRGEYPDYQQWMGLSDSIRSC [D6G]: the abundance fitness was -0.009 ± 0.055.

Take ITFYEVRAFQGRSYETTTDCPNLQPYFSRCNSIRVESGCWMLYERPNYQGQQYLLRRGEYPDYQQWMGLSDSIRSC [D6V]: the abundance fitness was -0.164 ± 0.14.

Regarding ITFYEYRAFQGRSYETTTDCPNLQPYFSRCNSIRVESGCWMLYERPNYQGQQYLLRRGEYPDYQQWMGLSDSIRSC [D6Y], the abundance fitness was determined as 0.032 ± 0.23.

ITFYEKRAFQGRSYETTTDCPNLQPYFSRCNSIRVESGCWMLYERPNYQGQQYLLRRGEYPDYQQWMGLSDSIRSC [D6K]: the abundance fitness turned out to be 0.086 ± 0.23.

Regarding ITFYEWRAFQGRSYETTTDCPNLQPYFSRCNSIRVESGCWMLYERPNYQGQQYLLRRGEYPDYQQWMGLSDSIRSC [D6W], the abundance fitness was -0.208 ± 0.072.

With ITFYELRAFQGRSYETTTDCPNLQPYFSRCNSIRVESGCWMLYERPNYQGQQYLLRRGEYPDYQQWMGLSDSIRSC [D6L], the abundance fitness turned out to be 0.032 ± 0.083.

Take ITFYEMRAFQGRSYETTTDCPNLQPYFSRCNSIRVESGCWMLYERPNYQGQQYLLRRGEYPDYQQWMGLSDSIRSC [D6M]: the abundance fitness was found to be 0.159 ± 0.25.

Take ITFYESRAFQGRSYETTTDCPNLQPYFSRCNSIRVESGCWMLYERPNYQGQQYLLRRGEYPDYQQWMGLSDSIRSC [D6S]: the abundance fitness was -0.065 ± 0.097.

For the variant ITFYERRAFQGRSYETTTDCPNLQPYFSRCNSIRVESGCWMLYERPNYQGQQYLLRRGEYPDYQQWMGLSDSIRSC [D6R], the abundance fitness was determined as 0.003 ± 0.059.

(Values after the Human Domainome abundance scans (Beltran et al. 2025).)
